Laboratory results taken from patent US20100015637A1 (AbbVie / Abbott, published 2010).

Assays:
[1] = molecular target: human PlGF-1 comprising amino acids 1-137 produced in human embryonic kidney cells (human) (UniProt P49763); assay: Format 1 …, capture 2-826-335, detection 1-255-713; sFlt-1 0 pmol/L (ratio 0)
[2] = molecular target: human PlGF-1 comprising amino acids 1-137 produced in human embryonic kidney cells (human) (UniProt P49763); assay: Format 1 …, capture 2-826-335, detection 1-255-713; sFlt-1 2300 pmol/L (ratio 75)
[3] = molecular target: human PlGF-1 comprising amino acids 1-137 produced in human embryonic kidney cells (human) (UniProt P49763); assay: Format 2 …, capture MAb264, detection Pb264; sFlt-1 1533 pmol/L (ratio 50)
[4] = molecular target: human PlGF-1 comprising amino acids 1-137 produced in human embryonic kidney cells (human) (UniProt P49763); assay: Format 3 Quantikine ELISA, capture MAb264, detection Pb264; sFlt-1 1227 pmol/L (ratio 40)
[5] = molecular target: human PlGF-1 comprising amino acids 1-137 produced in human embryonic kidney cells (human) (UniProt P49763); assay: Format 3 Quantikine ELISA, capture MAb264, detection Pb264; sFlt-1 0 pmol/L (ratio 0)
[6] = molecular target: T1, CHO human PlGF-1 comprising amino acids 1-137 (human PlGF-1-His (1-131), CHO 6305) (human, UniProt P49763 19-221, N-glycans at N21 (completely glycosylated) and N89 (partially glycosylated)); assay: … sandwich, capture MAb826, detection pAb264; antigen 60 pg/mL
T1 construct: Mature human PlGF-1 with 6xHis tag (137 amino acids); also called CHO (1-137)
T1 sequence: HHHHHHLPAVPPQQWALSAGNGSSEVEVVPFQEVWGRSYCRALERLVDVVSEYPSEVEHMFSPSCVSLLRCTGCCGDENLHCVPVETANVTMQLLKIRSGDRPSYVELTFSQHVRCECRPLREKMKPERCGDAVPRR

[7] = molecular target: T2, human PlGF-1 fragment (comprising amino acids 17-131) produced in human embryonic kidney cells (human, UniProt P49763 35-221); assay: as above
T2 sequence: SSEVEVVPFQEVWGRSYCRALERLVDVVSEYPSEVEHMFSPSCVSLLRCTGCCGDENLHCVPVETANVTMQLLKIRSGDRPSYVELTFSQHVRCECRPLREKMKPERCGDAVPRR

[8] = molecular target: T3, CHO human PlGF-1 fragment (comprising amino acids 17-131; ATCC PTA-8540) (human, UniProt P49763 35-221); assay: as above
T3 sequence: T2 sequence

[9] = molecular target: T4, human PlGF-1 comprising amino acids 1-137 produced in human embryonic kidney cells (human, UniProt P49763 19-221); assay: as above
T4 construct: Mature human PlGF-1 with 6xHis tag; also called HEK (1-137); full length HEK human PlGF-1 (1-137)
T4 sequence: T1 sequence

[10] = molecular target: recombinant human PlGF-1 (comprising amino acids 1-131) expressed in E. coli (R&D Systems) (human) (UniProt P49763); assay: … sandwich, capture MAb255, detection pAb264; antigen 750 pg/mL
[11] = molecular target: recombinant human PlGF-1 (comprising amino acids 1-131) expressed in E. coli (R&D Systems) (human) (UniProt P49763); assay: … sandwich, capture MAb255, detection MAb826; antigen 15 pg/mL
[12] = molecular target: T1, CHO human PlGF-1 comprising amino acids …; assay: … sandwich, capture MAb255, detection pAb264; antigen 15 pg/mL
[13] = molecular target: T2, human PlGF-1 fragment (comprising amino …); assay: as above
[14] = molecular target: T3, CHO human PlGF-1 fragment (comprising …); assay: as above
[15] = molecular target: T4, human PlGF-1 comprising amino acids …; assay: as above
[16] = molecular target: recombinant human PlGF-1 (comprising amino acids 1-131) expressed in E. coli (R&D Systems) (human) (UniProt P49763); assay: … sandwich, capture MAb255, detection pAb264; antigen 250 pg/mL
[17] = molecular target: T1, CHO human PlGF-1 comprising amino acids …; assay: … sandwich, capture MAb255, detection pAb264; antigen 1500 pg/mL
[18] = molecular target: T2, human PlGF-1 fragment (comprising amino …); assay: as above
[19] = molecular target: T3, CHO human PlGF-1 fragment (comprising …); assay: as above
[20] = molecular target: T4, human PlGF-1 comprising amino acids …; assay: as above

Work on “native sFlt-1, isolated from human placental tissue (from UniProt P17948 27-687) (receptor)” yielded a % Inhibition [1] of 0%, a PlGF-1 Measured [1] of 1020 pg/mL and a % Inhibition [2] of 93.6%. For the same molecule, the PlGF-1 Measured [2] was 65 pg/mL, the % Inhibition [3] was 93.6% and the PlGF-1 Measured [3] was 50.4 pg/mL. The % Inhibition [4] was 51.8%, the PlGF-1 Measured [4] was 417 pg/mL and the % Inhibition [5] was 0%. The PlGF-1 Measured [5] was 865 pg/mL.

B1: monoclonal antibody 2-826-335 (produced by murine hybridoma cell line 2-826-335, ATCC PTA-8539) (antibody, mouse IgG1, V domains shown)
VH: QVQLKQSGPGLVQPSQSLSITCTVSGFSLTTYGIHWVRQSPGKGLEWLGVMWSGGDTDYDAAFISRLSISKDNSKSQVFFKMNSLQANDTGIYYCARYRFYGMDYWGQGTSVTVSS
VL: AIQMTQSSSSFSVSLGDRVTITCKASEDIYNRFAWYQQKPGNAPRLLISGAASLEAGVPSRFSGSGSGQDYTLSITSLQTEDVATYYCQQYWSTPWTFGGGTKLEIKR
notes: also called MAb826
Molecule B1 has an RLU [6] of 22200 RLU, an RLU [7] of 36900 RLU and an RLU [8] of 28200 RLU. The RLU [9] was 47700 RLU.

B2: monoclonal antibody 1-255-713 (produced by murine hybridoma cell line 1-255-713, ATCC PTA-8536) (antibody, mouse IgG2a, V domains shown)
VH: QVHLQQSGAELMKPGASVKISCKATGYTFSSYWIEWVKQRPGHGLEWIGEILPGSVSNNFNEKFKDKATLTADPSSNTAYIQVSSLTSEDSAVYYCARSTGFYYGGNYFDHWGQGTTLAVSS
VL: DVVMTQTPLSLPVSPGDQASISCRSSQSLVHSNGHTYLHWYLQKPGQSPKLLIYKVSNRFSGVPDRVSGSGSGTDFTLKISRVEAEDLGVYFCSQSTHVPPTFGGGTKLEIKR
notes: also called MAb255
For B2, the RLU [10] was 1.32e+06 RLU, the RLU [11] was 22700 RLU and the RLU [12] was 26400 RLU. The RLU [13] was 32900 RLU, the RLU [14] was 28700 RLU and the RLU [15] was 46700 RLU. For the same molecule, the RLU [16] was 543000 RLU, the RLU [17] was 1.05e+06 RLU and the RLU [18] was 1.62e+06 RLU. The RLU [19] was 1.25e+06 RLU and the RLU [20] was 2.14e+06 RLU.
